Data from article PMC3792052, “Structural Analysis of Intermolecular Interactions in the Kinesin Adaptor Complex Fasciculation and Elongation Protein Zeta 1/ Short Coiled-Coil Protein (FEZ1/SCOCO)” (PLoS ONE, 2013).

What was measured:
[1] = biological target: 6xHis-FEZ1 (1-392) (human) (UniProt Q99689); experiment: SAXS; complex formed by lysing the two E. coli pellets together, two-step co-affinity purification (6xHis, then GST); purified complex at 1.10 and 0.34 mg/mL in PBS, 20 °C; mass from I(0) against BSA
[2] = biological target: the molecule itself; experiment: as above

| stoichiometry N (GST-SCOCO per 6xHis-FEZ1 (2:2)) [1] | Molecule | stoichiometry N [2] |
| --- | --- | --- |
| 1 | GST-SCOCO (2-82) (natural protein) |  |
|  | 6xHis-FEZ1 (1-392) (natural protein, human, UniProt Q99689 1-392, looked up, Predicted mass of the tagged protein printed as 48.8 KDa; also called fasciculation and elongation protein zeta 1; source: for SAXS cells lysed together with GST-SCOCO cells and co-purified (HiTrap chelating, then GST-Trap)) MEAPLVSLDEEFEDLRPSCSEDPEEKPQCFYGSSPHHLEDPSLSELENFSSEIISFKSMEDLVNEFDEKLNVCFRNYNAKTENLAPVKNQLQIQEEEETLQDEEVWDALTDNYIPSLSEDWRDPNIEALNGNCSDTEIHEKEEEEFNEKSENDSGINEEPLLTADQVIEEIEEMMQNSPDPEEEEEVLEEEDGGETSSQADSVLLQEMQALTQTFNNNWSYEGLRHMSGSELTELLDQVEGAIRDFSEELVQQLARRDELEFEKEVKNSFITVLIEVQNKQKEQRELMKKRRKEKGLSLQSSRIEKGNQMPLKRFSMEGISNILQSGIRQTFGSSGTDKQYLNTVIPYEKKASPPSVEDLQMLTNILFAMKEDNEKVPTLLTDYILKVLCPT | 2 |
